Source: patent US20110123511

Columns and labels:
[1] = molecular target: H3 peptide containing residues 15-30
[2] = molecular target: GST-fusion histone H3 peptide (residues 1-57), wild-type
[3] = molecular target: peptide containing H3 residues 1-20
[4] = molecular target: core histone H2A
[5] = molecular target: core histone H2B
[6] = molecular target: GST-fusion histone H3 peptide (residues 1-57), K27R mutant [GST: P08515]
[7] = molecular target: full-length free histone H3 (individual core histone)
[8] = molecular target: core histone H4

B1: recombinant wild-type vSET expressed in E. coli BL21 (protein)
chain: MFNDRVIVKKSPLGGYGVFARKSFEKGELVEECLCIVRHNDDWGTALEDYLFSRKNMSAMALGFGAIFNHSKDPNARHELTAGLKRMRIFTIKPIAIGEEITISYGDDYWLSRPRLTQN
methylation activity with H3 peptides (14C-methyl-SAM) [1]: Like vSET, these viral SET proteins only methylated a H3 peptide containing residues 15-30 but not a peptide containing H3 residues 1-20 | methylation assay (methyl transfer from 14C-methyl-SAM) [2]: The methylation assay showed that vSET was only active when H3 contained K27 | methylation activity with H3 peptides (14C-methyl-SAM) [3]: Like vSET, these viral SET proteins only methylated a H3 peptide containing residues 15-30 but not a peptide containing H3 residues 1-20 | histone methyltransferase activity [4]: confirming its activity for full-length free H3 and H3 within the nucleosome, but not other core histones | histone methyltransferase activity [5]: confirming its activity for full-length free H3 and H3 within the nucleosome, but not other core histones | methylation assay (methyl transfer from 14C-methyl-SAM) [6]: The methylation assay showed that vSET was only active when H3 contained K27 | histone methyltransferase activity [7]: confirming its activity for full-length free H3 and H3 within the nucleosome, but not other core histones | histone methyltransferase activity [8]: confirming its activity for full-length free H3 and H3 within the nucleosome, but not other core histones
